Four substances from paper PMC7803729 can be followed below.

In the assay the target is CT-P59 monoclonal antibody (fully human IgG) (human). Put plainly: BLI.
Sequence of CT-P59 monoclonal antibody (fully human IgG) (human) (heavy, as listed by the source, chain 1 of 2): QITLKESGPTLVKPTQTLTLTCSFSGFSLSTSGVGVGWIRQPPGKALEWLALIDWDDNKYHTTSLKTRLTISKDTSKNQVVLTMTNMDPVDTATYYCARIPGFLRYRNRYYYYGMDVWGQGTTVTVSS
Sequence of CT-P59 monoclonal antibody (fully human IgG) (human) (light, as listed by the source, chain 2 of 2): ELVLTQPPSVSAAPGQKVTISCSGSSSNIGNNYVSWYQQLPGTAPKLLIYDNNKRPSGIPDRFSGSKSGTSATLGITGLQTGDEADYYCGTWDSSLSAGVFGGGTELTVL
Broadly, the Kd is the concentration at which binding is half-saturated. A high value points to lower affinity. The term koff denotes a measure of how fast the partners let go of each other. Low values mean slow dissociation, high ones fast dissociation. What is called kon is the second-order rate constant of association. A lower kon goes with slow association. As for “SARS-CoV-2 RBD W436R (commercial, Sino Biological) (from UniProt P0DTC2) (domain or fragment)”, the Kd was 0.221 nM, the off-rate (koff) was 0.00018 s⁻¹ and the kon was determined as 816000 M⁻¹ s⁻¹.
The corresponding values for “SARS-CoV-2 RBD N354D (commercial, Sino Biological) (from UniProt P0DTC2) (domain or fragment)” are 0.294 nM, 0.000253 s⁻¹ and 861000 M⁻¹ s⁻¹.
“SARS-CoV-2 RBD K458R (commercial, Sino Biological) (from UniProt P0DTC2) (domain or fragment)” came in with a Kd of 0.236 nM, a koff of 0.000246 s⁻¹ and an on-rate constant (kon) of 1.04e+06 M⁻¹ s⁻¹.
Consider “SARS-CoV-2 RBD V367F (commercial, Sino Biological) (from UniProt P0DTC2) (domain or fragment)”, for which the dissociation constant (Kd) was 0.292 nM, the koff was determined as 0.000265 s⁻¹ and the kon came to 907000 M⁻¹ s⁻¹.
